Assay [1] has as its target Cas9 nickase (nCas9) (Streptococcus pyogenes) (UniProt Q99ZW2). The experiment in a line: cell-based or functional assay.
The target of assay [2] is catalytically inactive Cas9 (dCas9) (Streptococcus pyogenes) (UniProt Q99ZW2). The experiment in a line: cell-based or functional assay.

In assay [1], AcrIIA4 anti-CRISPR peptide displayed an average percent of qPCR-confirmed edited cells with nCas9 Plasmid 4 (+acrIIA4), per sgRNA unit pair; without acrIIA4 (Plasmid 5) between 73% and 100% of 0.7 to 5.9%. Further, in assay [2], the percent enzyme expression of gusA after dCas9 induction from Plasmid 6 (with acrIIA4); X-Gluc assay in E. coli came out at 0%, the percent enzyme expression of lacZ after dCas9 induction from Plasmid 6 (with acrIIA4); LacZ blue white screening in E. coli came to 27.3% and the percent expression of flhC after dCas9 induction from Plasmid 6 (with acrIIA4); swimming motility assay in E. coli amounted to 100%.

These data come from US20220290120A1.
